Consider 1 substance from publication PMC10491678.

For this test, the target named is N-terminus His-tag cleaved rBPSL1038 (rBPSL1038-post-cleavage) (Burkholderia pseudomallei) (UniProt Q63W52). Kind of test: SEC. In general terms: SEC sorts molecules by how far they enter the pores of the column.

For orientation: stoichiometry N means the number of molecules, sites or subunits per partner or assembly.

Substance “N-terminus His-tag cleaved rBPSL1038 (rBPSL1038-post-cleavage) (from UniProt Q63W52 1-88) (natural protein)” came in with a stoichiometry N of 2.
